According to a protein production outcome set (Wang et al. 2014):

Assay: label from the status in PepcDB records

MKTTKIVIASLVSLTMVSNPLLTFAATNDVIDNTTEITTDKETSSTQPTIKNTLKAGQTQSFNDWFPDDNFASEVAAAFEMQATDTISEEQLATLTSLDCHNSSITDMTGIEKLTGLTKLICTSNNITTLDLSQNTNLTYLACDSNKLTNLDVTPLTKLTYLNCDTNKLTKLDVSQNPLLTYLNCARNTLTEIDVSHNTQLTELDCHLNKKITKLDVTPQTQLTTLDCSFNKITELDVSQNKLLNRLNCDTNNITKLDLNQNIQLTFLDCSSNKLTEIDVTPLTQLTYFDCSVNPLTELDVSTLSKLTTLHCIQTDLLEIDLTHNTQLIYFQAEGCRKIKELDVTHNTQLYLLDCQAAGITELDLSQNPKLVYLYLNNTELTELDVSHNTKLKSLSCVNAHIQDFSSVGKIPALNNNFEAEGQTITMPKETLTNNSLTIAVSPDLLDQFGNPMNIEPGDGGVYDQATNTITWENLSTDNPAVTYTFTSENGAIVGTVTTPFEAPQPIKGEDVTVHYLDDKGEKLADDEVLSGNLDDPYTSSAKDIPDYTLTTTPDNATGTFTTTSQSVTYVYTKNIVAAEPVTVNYVDDTGKTLSPSEILNGNVGDTYNATAKQIDGYTLSAEPTNATGQFTSSAQTVNYIYTKNPAPEKGVVEIHYVDEDNKQLNSTTEISGTIGDNYTTEPKTIEGYTLTTTPGNATGTFTTGSQTVTYVYTKNIEAAEPITVNYVDANGKTLAPSETLNGNVGDTYKATAKQIDGYTLSAEPTNATGQFTSSAQTVNYIYTKNTNTDQPLPTKKPTNTTPTKPSNLKTTEVKKASDTLPKTGDSAPWKSALLGVFLSSTALVIWKKKK
protein production: failed

MRRSFLKTIGLGVIALFLGLLNPLSAASYPPIKNTKVGLALSSHPLASEIGQKVLEEGGNAIDAAVAIGFALAVVHPAAGNIGGGGFAVIHLANGENVALDFREKAPLKATKNMFLDKQGNVVPKLSEDGYLAAGVPGTVAGMEAMLKKYGTKKLSQLIDPAIKLAENGYAISQRQAETLKEARERFLKYSSSKKYFFKKGHLDYQEGDLFVQKDLAKTLNQIKTLGAKGFYQGQVAELIEKDMKKNGGIITKEDLASYNVKWRKPVVGSYRGYKIISMSPPSSGGTHLIQILNVMENADLSALGYGASKNIHIAAEAMRQAYADRSVYMGDADFVSVPVDKLINKAYAKKIFDTIQPDTVTPSSQIKPGMGQLHEGSNTTHYSVADRWGNAVSVTYTINASYGSAASIDGAGFLLNNEMDDFSIKPGNPNLYGLVGGDANAIEANKRPLSSMSPTIVLKNNKVFLVVGSPGGSRIITTVLQVISNVIDYNMNISEAVSAPRFHMQWLPDELRIEKFGMPADVKDNLTKMGYQIVTKPVMGDVNAIQVLPKTKGSVFYGSTDPRKEF
protein production: failed

MFNKVIMVGRLTRNVELKYLPSGSAAATIGLATSRRFKKQDGTLGEEVCFIDARLFGRTAEIANQYLSKGSSVLIEGRLTYESWMDQTGKKNSRHTITADSLQFMDKKSDNPQANAMQDSIMHENSNNAYPANHNAPSQDPFNQAYAQNAYAKENLQAQPSKYQNSVPEINIDEEEIPF
protein production: failed

MGQIGVEITGVITDISEIKTFKRRDGSLGKYKRITIADKSGTIRMTLWDDLAELDVKVGDVIKIERARARKWRNNLELSSTSETKIKKLENYEGELPLEHHHHHH
protein production: not failed

MKSKWIFIQWFKYNNIRMKDESTNKFGSLNLAVLVLSVYVLGALIVDTTIKLPEETSRLLNYIDLAICIFFFVEFCIRLYHADSKMKFMRWGWIDLVSSIPMINFLRFGRVFRLIRLFRILRAFRTTKEFVTYVFRIKAQGAFTSATILAILLIIFSSIAILQVENASTSNITTAEDAIWWSYVTITTVGYGDKYPVTTEGRIIAMFLMTAGVGLFGTFTAYIASLFVSDNKKEETETKE
protein production: failed

MEAKLSSIEIPVGQDELSGTLLTPTGMPGVLFVHGWGGSQHHSLVRAREAVGLGCICMTFDLRGHEGYASMRQSVTRAQNLDDIKAAYDQLASLPYVDAHSIAVVGLSYGGYLSALLTRERPVEWLALRSPALYKDAHWDQPKVSLNADPDLMDYRRRALAPGDNLALAACAQYKGDVLLVEAENDVIVPHPVMRNYADAFTNARSLTSRVIAGADHALSVKEHQQEYTRALIDWLTEMVVGRRIALAKEVVAARKQLLKEQQGDAVSLPGQGSREFRGDIRAVEKTSA
protein production: not failed

MSARSLRQEALNLPNAITATRIALIPVFLWFTFYESRVDSFIAAVLYAVTGATDFLDGWVARRKNLVTVIGKFLDPLADKLIVMAALVMLVHLGRVAAWVCIVVLAREFIVTGLRTIAMSEGIVIAAGQEGKHKTAFQVAGITFLLLHYTYPIDAIFFSFDLDANRVGTWLVYISLFFSVWSAVSYFANFIRAVYRREGEAQAAEDVRPNRRTSRG
protein production: failed

MSDPGFEYAPIGLVELENRVIRRCNLHFASMFGGQESEYRDMPLLRLYPSHEDFERIGKRGLQVMRETGYYTDERIMRRRDGDLFWCRARGKSLTPDDPFRHGIWSFADISEERRVVELTPREREVALLTCRGLSAKEVGVELGLSYRTIEAHRARLLQKFGARKLPELVAKLSGMPL
protein production: failed

MKTTFLSLCFLLFFPLTGYSWQTAVTHISFHDLQRHRQLDSIIYYPTADQGETQLLSDTAVFRGISVLPNAPLAEGKFPLVVLSHGSGGNNTSLAWLADKLVQQGMVVVAANHPGSTTGDSIPAQSAQLWLQTEDISFIISTLLSDPRWKSALDEQAIGVIGHSKGGYSAIATLGATLSRPHFIASCQQQPEQPNCQFYTHAGVTLDQLSAEKFEGNYADKRLRFAIALDPGMVPFYQKSSLLHLSAPLLLINADYFISPNESLNLGGATWVKQLNQPGITAVTLTKSGHFDFLPLCKPAAGAILAEEGEAFICATPAVEREKLHQQTVQQILTYLQ
protein production: failed

MSLPGLSAAADQTIKIGAQSMSESEIIASMLGQLIEHHTDLKTTTIKNLGSNAVQQQALMNGEIDIAATRYTGDALTGTLRMEPEKDPDKALALTQREFKKRYDLKWYDSYGFDNTYAFTVSKELADQYHLETVSDVKKWAPQLKLGVDNYWMKLKGNGYQDFTKTYGMTFGGTYPMQIGLVYDAVKSGKMDIVLAYSTDGRIKSYGLKMLKDDKQFFPPYDCSPVVPEKVLKEHPELEGIIKKMLGKIDTATMQELNYEVDGNLKEPSVVAKEYLEKHRYFESLEHHHHHH
protein production: not failed

ADIVNLQGVTGGNTYSVPAVTMDLLSGKDVAVEEFPRKLLTFKEKLGEGQFGEVHLCEVEGMEKFKDKDFALDVSANQPVLVAVKMLRADANKNARNDFLKEIKIMSRLKDPNIIHLLAVCITDDPLCMITEYMENGDLNQFLSRHEPPNSSSSDVRTVSYTNLKFMATQIASGMKYLSSLNFVHRDLATRNCLVGKNYTIKIADFGMSRNLYSGDYYRIQGRAVLPIRWMSWESILLGKFTTASDVWAFGVTLWETFTFCQEQPYSQLSDEQVIENTGEFFRDQGRQTYLPQPAICPDSVYKLMLSCWRRDTKNRPSFQEIHLLLLQQGDE
protein production: failed

MLRSSSVDRKREEEPRLSYMIARVDRIISKYLTEHLSALEISLPQFTALSVLAAKPNLSNAKLAERSFIKPQSANKILQDLLANGWIEKAPDPTHGRRILVTVTPSGLDKLNQCNQVVQQLEAQMLQGVDINLAFLIRNNLELMVKNLSTFSSLDQSKE
protein production: not failed

MSRPDDIDVRPIAEAETADWIRALNTGFLRSPEVSEREVADRSSYLVPARTLGAFDNGRCVATFRSFPQELTAVGGASVPADAISNVTVTATHRRRGLLTRMMAQDLAAAKERGDVVATLIAAEYPIYGRYGFGAATHSTEWTID
protein production: failed

MSQERTDGDLRNTGLSLKHDREWDYELDRIVEAVEERDAEKVGLQFPEGLKRRGPAVADDLREELPDDVTVLLSGQPCYGACDLDTYMMRRTDVFVHFGHSPMKESDKIIYVPLFSNVDVFPIMEQAREEQLADPEDDPDVGLVTTAQHMNKFDEMREWLEERGYTVHTRRGDERLTHEGQVLGCNYASADVDADQMLYVGGGKFHPLGLAMEHPEKHVVIADPVNNVVTVADTEKFMKQRYGAVHRAMDAESWGVIFCTKIGQGRWDQAEEIVENNENAYLITMDEVTPDRLTNFGMDAYVNTGCPRITTDDGPQFKKPMLTPGEYEIAIGEKPLDSLEFDTFHGTWLEHHHHHH
protein production: not failed

MSEEKNTAIDLKNLKAGGFIKERGKDLFTVRLRVPGGRLPVGRLKKIAEVAEKYGQGMVHLSVRQSVELININFRDFDAVVAELGEGTQKVASCGARVRVPTACGGCEYNPNGLVDTQKSALEVDEKLFGIPTGHHKFKVGFAGCPFDCPKSATNDVGFQGAVWPVLSADHCIGCGLCAKSCTEDAIAMGDNGKPLFIPANCLYCGDCLKVCPTEAWRAGKKGYTVRIGGKWGRRPLVGTLFAEFLPEDQVVDFIAAVLGWYQEKAEGQGRIRLGDVIRAQGPEALLARLRERFPAFVVNATIAPQAIATQVGKEKQAHDNRLEHHHHHH
protein production: not failed

QKDANASSEFYINKLGQTQELEDQQTYKLLAARVLIRENKVEQSAALLRELGELNDAQKLDRALIEARISAAKNANEVAQNQLRALDLNKLSPSQKSRYYETLAIVAENRKDMIEAVKARIEMDKNLTDVQRHQDNIDKTWALLRSANTGVINNASDEGNAALGGWLTLIKAYNDYIRQPVQLSQALQSWKNAYPNHAAATLFPKELLTLLNFQQTNVSQIGLLLPLSGDGQILGTTIQSGFNDAKGNSTIPVQVFDTSMNSVQDIIAQAKQAGIKTLVGPLLKQNLDVILADPAQIQGMDVLALNATPNSRAIPQLCYYGLSPEDEAESAANKMWNDGVRNPLVAMPQNDLGQRVGNAFNVRWQQLAGTDANIRYYNLPADVTYFVQENNSNTTALYAVASPTELAEMKGYLTNIVPNLAIYASSRASASATNTNTDFIAQMNGVQFSDIPFFKDTNSPQYQKLAKSTGGEYQLMRLYAMGADAWLLINQFNELRQVPGYRLSGLTGILSADTNCNVERDMTWYQYQDGAIVPVAN
protein production: failed

MNRMMALVMAGGRGTRLAIDCEKPLLEVAGRPMIDHVLEALESATGVDGIIVVTSPHTPMTEDHVRGRHPIFRASGGGYVEDLREVLSHLEESYHEPLLVINSDLPLVRPSTIDWIISSYHSCPEPAMCVAVPDDLCRRHGLDFSGSLDGLVPCGVNILMSKNRVQEQRILEASMLELAVNINSCRDLKVLEKILGEIDGREEAHKRGREVLELEHHHHHH
protein production: not failed

MKKPKFLSLQEDDTFEKMRQSRLQKNKRKRDSGLNVFEEVVKDLTYGYMKIGDGDEIYGKHRKKKRVSKAKELEMAMTLEALKKDQEKGDIVAKNHSWQAAISRAAGIKIHDDPKRLKKRIHKETKMREKNTEKWKERVDVQQKFRAEKQQKRSENVIDRIQQKKMRKIAKREKKLLRPGY
protein production: failed

MKRWTTLLIVICMLGITIPAMGAMSISKMRQNTRFLTDRMAYELKLTPRQYNDVYEVNYDFINNVRYLMDDVVRGYDYALERYYDFLDVRNDDLRWILSSAQYRRFMRAEHFYRPIYAHENKWHFRIYLVYNNVNFFYYGKPHHYASYCGGHYRTHFNNVSYYKTHYRDHYRHDVYDGHYRIRHDRMTYDMHRRRDFNIAVRPPQKEHHRPATPPQTRPNRPQIHPDRPSGDHRRPSVPQARPDRPKKDQNNKHDGRPSRRGQNSQVDKDRHENRRITPSGRDVRRGNGKKEKDSDRSGGSNKSNSKERTAVRMRTV
protein production: failed
